Experiment: soluble fraction after stress (log2 fold change); higher = more stays soluble; pooled small domains, quantitative proteomics
Conditions: stress: pH 4
Procedure, shortened: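 Following acid stress at pH 4, the amount of each small protein domain still soluble was measured in pooled custom libraries by high-throughput quantitative proteomics. Its fold change, on a log2 scale, is higher when more of the domain stayed soluble. This fold change is taken as a measure of aggregation propensity.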

| Sequence | soluble fraction (log2) |
| --- | --- |
| HMEIETPEIRAIHDLLELLANKAKKPEQEQFVQAHPEVQWAKVEANKNGTFAVGKVKAYLKTLQA | -0.568 |
| HMKRQATLQIGSKRFGMDDLYFKFTVPFEDSEKLGTATIEAYNLSPATRNSIKKGMPIILNAGYEGDI | -0.103 |
| HMDEWDPAILYVGLDYEDAAQIATRLATSGVPYRLSPDGTMITVPDDQVNNMRLTLAGEGFPH | -1.12 |
| HMTSHYTVLGVKETDTIEMIRTHYRKLILQFHPDKNQHLTEEERKKLEVKVLQIREAYEKIKKEK | -0.816 |
| HMYINVQNARTIASFRSSLWRMHRDFTNQGYITADGLKTFLEMGKLYEDAGGNDIYHSKLLPEITALEIKY | -0.421 |
| HMKGLDAAVVDLFKSKGASIVFAGNRLSLSGEVADQATKDELLAKAKAILASLGASVSLDDKLMVKGAKAS | 0.175 |
| HMAAYRLIPLGNSNKDFETYQEAIQYMRDKLDESSKAFEEGKQNWVYSGRVYGVPWSDGRTTFTVDLVPKV | 0.0755 |
| HMVVYDAELLLNINPGMSYEEVKEMLGDPGMIIAGNDAENSVYRWSTGGISFMGRFENGALIRKSIISP | -0.916 |
| HMEALNIEQKKVEIINVLLEKGKGKGRLSYKEISDQIDTVELDKDQMDELYETLMTNGIEIV | -1.43 |
| HMLNLNILTDKEKFIAKLISRGLSDSLIAKELYISISTVRSHVNSIYGKTNIKNRSHLASSFLYFELGNLL | -0.0771 |
| HMLVPWKSANLFKLVEPNFRLAERKIPMLPSADREKLQEIMSDMKDAIVDNDKMALMKLDEELTDFLFDFV | -1.03 |
| HMTPFLVRVDISDLNIRTGAGTNYSRTGQYTGKGIFTILEVKSGQGSDAGWGRLKSGAGWISLDYTTR | 0.275 |
| HMERAFRILELFDLKQDELPITEIAERTGLPISTAHRLLSTLETLGYIAQNPDNGRYRLGLQTFVLGSR | -1.3 |
| HMENLQLQQLVKGLPEKMQEIVILRFSQELTMREIADIVNLPMRTVQSQLRLALKILKKEMG | 0.145 |
| HMYLYADIYKKLEEKIKNMEVGEKLPSERAMVQEYGVSRNVLREALVLLSERGLIEIRPGKGSYVTNQQ | -0.177 |
| HMDADRILHKTLKPRELEIYQLIKAYLEEHSQIANAKVQEISGLSEATTRRYLNIFVEFGLLKTS | -0.164 |
| HMNLGNLLKIYRKNSLLTQQQVADALNINRTTYTYYETGKTEPSIDTLHKLIKIFGITYDDLL | -0.337 |
| HMNPNYIKKLREKNQLTQEYLAAQIGVSRPTYAQIEQGQRGLTVTEAKKMADIFSLALDDFLAEKN | -0.442 |
| HMEKPTEITLSNRVSVQELAEKMYVSETDIIRTLFLDGRIININQVLDIDTAIRVGEQLGIKIKII | -1.49 |
| HMLYKNIAKKLRFRINSDEFAIGDVLPTERQLMEEYQASRVSIRKAIDELVAIDLIEKKQGSGTYIKQKEV | -0.493 |
| HMRDLAEAETILDALPTRLRKIVRWRHLEGLSQTEIAARLEISQMHVSRLYRRAISMIHASLADD | -0.843 |
| HMKRITGHLTEKNKKWYAVINLYDTDGKRKEKWQGLNLDANKGNKREAEHRLRQILDQYNTD | 0.125 |
| HMIGGASVFKQFLPLADKMLLTLIHSEFEGDTYFPVFSEKEWLLQESSSLLSATGYQLSFQTYIR | 0.013 |
| HMGSKQVSVPDVRNLDYERASQQLREAGFVVGDVLRIRDDRAPAGTVIAQSPAAPALVPENARVSLLVSSG | 0.00984 |
| HMNEQVAVVSGSQVNVRSGPGTTSAVVGQVSKGDNLPVLNQSGDWYQIKLPGGNAGWVAGWLVSLRPTT | 0.237 |

| Sequence | soluble fraction (log2) |
| --- | --- |
| HMINVLTPKQIEATTIAVKYGYYENPRTVSMRELSEISGIARSTLQEHLSKAEAALMILAAKSQL | -0.0956 |
| HMLSNYIGMTLGEAKRNLGQGVNITVNGPNNDNAEVTGQDPTSGSSFDKSKDTITLTT | 0.225 |
| HMEEPEELYRVKILIYNLLVRNGPGILYTRLRRADYPGEYGIYEEKNGYGKISATLSEWISLNTEYVQRLD | -0.378 |
| HMEGSLQEDKVKEYQDRFKEELSNDLNTANSITVLYDLIKDDTLNGTTKRYLIEDFDKILSLDLIKE | -0.854 |
| HMGETISVPAVRSLAYDRAVDMLTAEGLKGIVADSVYDNRTQPGTVIEQNPKAGTIVKEGREVYLTINA | 0.0278 |
| HMESLSHRQKSIVDWVQKNGYASIERMAEQFEVSAQTIRRDVIELSERRILQRHHGGASLPAG | -0.17 |
| HMEPLVSKVFQVSYQKTADLVALIKSEDSKLLSARGTLISDERTSQIFVQDTPTRLERISMIVNGL | -0.895 |
| HMGQKDYKTRLQEYFAKQGLKVNYEDTSHGPDHNKNFSTDVFLDGKIIGSGIGKSKKSSQQSAAKDALNIL | ≥ 0.43 |
| HMGAVVSPMPGVILDIKVKEGDSVSEGQTVIILEAMKMENEIVSEFTGTVSAIRVKKGDTVDTDAVLVEI | -1.04 |
| HMFDNPLSERDKEILNHISMGKSNKEIANQVGLAEQTIKNTISVILDKTFTSNRAQAASMATKNKW | -0.0659 |
| HMSINTIIAKNLNRLRNERNLSLGQLAELSGVSKVMLSQIEKGDSNPTVNTIWKIASGLNVPYTAILDQP | 0.22 |
| HMKNLSQAEFMYLFKILAFGSTDPDNHPEMAATGMEIAKMLQGLLLSGNVLADILRKNQNVQFWL | -0.0785 |
| HMVSQKPKERELWFREQLELAGLRLDPHAISAINETLGNDTGRFPGIIDTLLSTYGAGKKLSYDDVVMFL | -1.8 |
| HMLENIVFTNKFKNKRLDVLLVDMKLVSSRQKAVSLIMRGNVFVEEERADKPGKIIKLNQTISLKK | ≥ 0.43 |
| HMTTKYMVLVNWVKEKVRTNELKTGEKLYSEHEFSRMFHMSRQTVRHGISILERENIVERRQGSGTFIKDA | -0.223 |
| HMSQLYINATDDGWVIGNLPADAREVLLTTLGGQVVARYHVTAPSLRVKAPRKGVYIVSVETA | -0.0877 |
| HMQEESISWKEFLELDIIGDKKKRLKVYDLFHLGYGNAKTLFKRLNMVGISREMIEKELENEGY | -0.0561 |
| HMFFDSDTDIQNALNAENSIKKYQLFRTQTLYNSAQSDIDFVNQPEVKAKLFDALENLKNKLGFLAEPT | -0.4 |
| HMAPMYGEFENVRLTDAQLDKLNARFPPEQVQREIEALSGYMRSKGKRYADHYATLLNWLRRDFPP | -0.112 |
| HMHDYTTIIGVIELRLNKISYDNVQKRYRIGRSGISLIMERYRDSGLSLDDLKQMPAEKVVNLIYPKD | -0.108 |
| HMKDHKSKWMAKTELDSIAKNLSKKHAISLDYEEDGTRFYAGGQSPLGIGRLFTVFVAPRNGHWSDQLR | -0.0435 |
| HMGVSLKEIQENLSLIDDAAQKLASGQGTVDDAVGMGNAGKDIYDNIEGYVSSPKEFINGVLSSV | -0.823 |
| HMSDIATLVPGPTDAELAASALRGLDAALDADTPVRLSLGEPGGEVEVPRSVLAALARVLDSFAHGEGVTL | -0.443 |
| HMGTSFKITFYKDAFQVDDGPIRMLNDPANQKFVDEVSQGYAPKELIGQGGKAPEIDIIDKRSENAPT | -0.0971 |
| HMSESGTFRAEAADAGRRLDVALAERLRLSRAAAQRLIAAGLVLVEGSPARKRQILHAGETVAWRAAPP | -0.0686 |

| Sequence | soluble fraction (log2) |
| --- | --- |
| HMTDLVVGLAGITLEPLRPAGKAEFNGSVVDVVSLGDYIEKSTAIQIVEIEGNRIVVHHGED | -1.09 |
| HMTLLVPASKEAILGGLAKIDALKVILKPEKDYSKTHAMTIGTKDEVIAKLDSFLSGMDSEKNQVLIQEYM | -0.135 |
| HMFTSVDVAPDLRTAKVFYSVLGRKKSDKEINIAINQKRKAFKKFMGPELHLKNIPDLHFYYD | 0.115 |
| HMTGEDIKKVILREYAREKSLLSIFHELSKVNSNVTLEVIKDIITNIDKLPNDLLQYFKEESSFYQKNKN | -1.35 |
| HMSGNPLDTYYSKWSAEIKKGSPNAVISKEGDKYYVSIPGENRMAIIYENPHLIRMVNATRNIHVE | 0.0911 |
| HMSILYNAVKGTLVSSGALTADSWYKISSFGTASALPALKVGSIFKTPEGAGDAITLASGDSVYPLTLT | 0.021 |
| HMKAGAVFNEGDVLYPKIGGLKLMAAAGEGGKVVATLAKTDEMIYMGEEQSGFVKVESGSGSGWVKKILVA | 0.202 |
| HMISEAEGTILQLLKEADGTLPFTYKSDADEIKKVFGMSKKNFKRTLTELIEAKKIQLLDDAIVL | -0.0222 |
| HMHAGQIISQKIKESGISISHVAKHLKVQRATLYNLFEREVWPAHRLRTIEALLHIDLSDLYP | -1.52 |
| HMDINMELGKNIRRLRKLNNLTQQSLANQMNRSKTLIALWEKGERDPSSIDLKRLSEIFNVRADDIIG | -0.00935 |
| HMKKSGFFSAGDRIQLTDNKGRQYSFNITEGKEFHTHQGFIKHDDLIGMPEGSVVSINSTTGVVQKFMAF | -0.584 |
| HMVEYIENINLSEKQKFIAHEILKEIRGRAIFLRDVGLDYLNLSRKAGTLSGGEAQRIRLATQIGSA | -0.347 |
| HMGLLVPELTAEENVSLAAMIAGVPRQQARSISADLLNRLGLGQMLDRRMGEMSGGQAQRVAIAPIYGKF | -0.129 |
| HMKNANGYGSITKLKGNRRKPYMVRITVGRDENGFPIRKVLGYYSSKANAVAALSDYNREPYDI | -0.281 |
| HMEFDIDAAIHAALEPQAVMRAWFGHEGREYPEDFGVVFFRGWESFTHQEKVEAVRDAKKVLDRAVR | -1.17 |
| HMANLLNLREIPVANIRPELTMFLIPGENITQAFQTIRDQVVFTNKRLIVANVQGLTGKKVSYTSYPY | -0.251 |
| HMETPLSAADFKIVFGEEYEIGTDANGLPKMGSRINRQLQNRFLTWASVNKRKATMSAYQDWVASDPAAQ | -0.693 |
| HMPLITAIELDSISARSFQFNTQSGSTYFIEGSTDLKSWDVIAEVKATDSTTTYEDHRKIYHEAYFYRVRL | -1.55 |
| HMENQMIIYIDENDENKRLDSYLSEITPDYSRSKIQNFIKNGNVTVNDSNKKPSYLLKENDKISFELPQQ | -0.158 |
| HMVMTTVPEVLGMDIRTAASMLTGKNLKYDYDLVESDKPKDEVIEQDQAKGTEVPEGTVVKLKVSKGPA | 0.247 |
| HMYDEAAIRKAVMTFVTDNRDERLDLAKISAVLTSKFGNINFDELGYKRFSSFIDSFPELRRNNTFVSLR | -0.193 |
| HMETLETYTSRLRQLEDITNNFKGVDKSFAIQAGREIRVMVVPEQVSDADMILMARDISKAIEAELEYPGQ | -0.315 |
| HMITAEQENILFEKASDDISNNIINKGIWTKAYSQAGGDESKQKAIYIDLLVNYYKMLIKAGEEFEDI | -2.05 |
| HMTQEAMRSLRKSLQNLSSRQQVIFMLRHYEGLALKEIAEHLGLETGTVKAHLHRAVTQLRKDLVE | -0.112 |
| HMEDTVNVPIQINGKLRHVIQVQIGTSEEEIQKIALSEEQVKKFTDGHEILKVMVPKGKLVSIVI | -0.126 |
